For test [1], the target named is Semi-purified recombinant West Nile virus NS1 with 8-His tag (West Nile virus) (UniProt Q9Q6P4). Kind of test: sandwich ELISA: coated mAb 3.1112G captures rNS1, rabbit anti-WNV-NS1 polyclonal detection. (ELISA stands for enzyme-linked immunosorbent assay.)
Test [2] has as its target recombinant NS1 (rNS1), construct not stated. The test is described as above.

UniProt Q9Q6P4, sequence (Q9Q6P4 799-1144, tags or fused parts left off): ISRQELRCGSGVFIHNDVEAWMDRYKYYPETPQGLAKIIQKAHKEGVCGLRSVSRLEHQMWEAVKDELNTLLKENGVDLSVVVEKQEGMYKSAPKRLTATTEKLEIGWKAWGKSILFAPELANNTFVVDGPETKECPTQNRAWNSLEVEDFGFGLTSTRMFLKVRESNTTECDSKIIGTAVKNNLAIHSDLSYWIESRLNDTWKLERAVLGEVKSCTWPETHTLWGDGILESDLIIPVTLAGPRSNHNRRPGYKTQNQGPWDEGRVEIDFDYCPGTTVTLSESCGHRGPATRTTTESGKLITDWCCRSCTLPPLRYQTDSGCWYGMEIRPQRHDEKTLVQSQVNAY

With “monoclonal antibody against Kunjin NS1 (3.1112G, Chemicon International)”, the O.D. in test [1] was found to be 0.887 O.D. 450 nm; in test [2], 0.577 O.D. 450 nm.

Source of the values: US20050053923A1.
